US20190351049A1 (Regeneron, published 2019)

B1: H1M15289N (antibody, V domains shown)
VH: QVQLQESGPGLVKPSETLSLTCTVSGGSISSYYWSWIRQPPGKGLEWIGYIYYSGSANYNPSLKSRVTISVDTSKNQFSLKLSSVTAADTAVYYCVRDRDLLLDHWGQGTLVTVSS
VL: EIVMTQSPATLSVSPGKRATLSCRASQSVSSNLAWYQQKPGQAPRLLIYGASTRTTGFPARFSGSGSGTDFTLTISSLQSEDFAVYYCQQYNNWPYTFGQGTMLEIK
B2: H2aM15287N (antibody, V domains shown)
VH: QLQLQESGPGLVKPSETLSLTCTVSGGSISSGNYYWGWIRQPPGKGLEWFGTIYYSGSTYYNPSLKSRVTISVDTSKNQFSLKLSSVTAADTAVYYCARRAAVGHFDYWGQGTLVTVSS
VL: DIQMTQSPSTLSASVGDRVTITCRASQSISTWLAWYQQKPGKAPKLLIYEASSLESGVPSRFSGSGFGTEFTLTISRLQPDDFATYFCQQYNTYWTFGQGTKVEIK
B3: H1M15290N (antibody, V domains shown)
VH: QVQLVQSGAEVKKPGSSVKVSCKASGGTFSTYAISWVRQAPGQGLEWMGGIIPFFGTANYAQKFQGRVTITTDESTSTAYMELSSLRSEDTAVYYCAREGTYYDSLTGYYTHYYRMDVWGQGTTVTVSS
VL: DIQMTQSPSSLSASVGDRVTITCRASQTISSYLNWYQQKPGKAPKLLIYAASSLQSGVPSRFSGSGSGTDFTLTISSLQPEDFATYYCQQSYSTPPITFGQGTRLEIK

These binders were tested against T1, MERS RBD-hFc (MERS-CoV (isolate EMC/2012)) (assay: ELISA on coated MERS RBD-hFc, hybridoma supernatant 1:50, absorbance at 450 nm).
For B1, the “ELISA Binding” value was 2.73. With B2 the “ELISA Binding” value was 2.53. B3 was tested, and the “ELISA Binding” value was 2.76.

These binders were tested against T1, MERS RBD-hFc (assay: SPR Biacore, captured mAb, 37 C).
Binder B1 has a Kd of 0.275 nM, a koff of 0.000126 s⁻¹ and a kon of 459000 M⁻¹ s⁻¹. It also gave a t1/2 of 1.53 h. With B2 the Kd was 10.9 nM, the koff was 0.00189 s⁻¹ and the kon was 174000 M⁻¹ s⁻¹. For the same binder, the t1/2 was 0.1 h. B3 gave a Kd of 1.48 nM, a koff of 0.000984 s⁻¹ and a kon of 666000 M⁻¹ s⁻¹. The t1/2 was 0.2 h.

The binders below were run against T1, MERS RBD-hFc (assay: SPR (Biacore), hybridoma supernatant antibody captured, MERS RBD-hFc as analyte).
With B1 the Kd was 0.669 nM and the t½ was at least 1.92 h. B2 gave a Kd of 0.245 nM and a t½ of at least 1.92 h. Work on B3 yielded a Kd of 0.778 nM and a t½ of 1.34 h.

These binders were tested against T1, MERS RBD-hFc (assay: SPR Biacore, captured mAb, 25 C).
Work on B1 yielded a Kd of 0.21 nM, a koff of 4.41e-05 s⁻¹ and a kon of 210000 M⁻¹ s⁻¹. For the same binder, the t1/2 was 4.37 h. B2 showed a Kd of 6.98 nM, a koff of 0.000442 s⁻¹ and a kon of 63300 M⁻¹ s⁻¹. The t1/2 was 0.433 h. For B3, the Kd was 0.438 nM, the koff was 0.000211 s⁻¹ and the kon was 482000 M⁻¹ s⁻¹. The t1/2 was 0.917 h.
